Test results published in patent US20260256915A1 (published 2026).

T1: PRAME peptide on HLA-A*02:01 (human)
T1 peptide: SLLQHLIGL

B1: nwTCR-3272 (TCR, V domains shown)
Valpha: QKEVEQNSGPLSVPEGAIASLNCTYSDRGSQSFFWYRQYSGKSPELIMSIYSNGDKEDGRFTAQLNKASQYVSLLIRDSQPSDSATYLCAVPSGNMLTFGGGTRLMVKP
Vbeta: DVKVTQSSRYLVKRTGEKVFLECVQDMDHENMFWYRQDPGLGLRLIYFSYDVKMKEKGDIPEGYSVSREKKERFSLILESASTNQTSMYLCASSSATSGSGEQYFGPGTRLTVT
B2: nwTCR-3274 (TCR, V domains shown)
Valpha: QKEVEQNSGPLSVPEGAIASLNCTYSDRGSQSFFWYRQYSGKSPELIMSIYSNGDKEDGRFTAQLNKASQYVSLLIRDSQPSDSATYLCAVVSGGYNKLIFGAGTRLAVHP
Vbeta: EPEVTQTPSHQVTQMGQEVILRCVPISNHLYFYWYRQILGQKVEFLVSFYNNEISEKSEIFDDQFSVERPDGSNFTLKIRSTKLEDSAMYFCASSEGWGGTEAFFGQGTRLTVV
B3: nwTCR-3271 (TCR, V domains shown)
Valpha: DQQVKQNSPSLSVQEGRISILNCDYTNSMFDYFLWYKKYPAEGPTFLISISSIKDKNEDGRFTVFLNKSAKHLSLHIVPSQPGDSAVYFCAAKPDKLIFGTGTRLQVFP
Vbeta: SAVISQKPSRDICQRGTSLTIQCQVDSQVTMMFWYRQQPGQSLTLIATANQGSEATYESGFVIDKFPISRPNLTFSTLTVSNMSPEDSSIYLCSVWGAGLAIYNEQFFGPGTRLTVL
B4: nwTCR-3273 (TCR, V domains shown)
Valpha: SQELEQSPQSLIVQEGKNLTINCTSSKTLYGLYWYKQKYGEGLIFLMMLQKGGEEKSHEKITAKLDEKKQQSSLHITASQPSHAGIYLCGAVPINDYKLSFGAGTTVTVRA
Vbeta: EAQVTQNPRYLITVTGKKLTVTCSQNMNHEYMSWYRQDPGLGLRQIYYSMNVEVTDKGDVPEGYKVSRKEKRNFPLILESPSPNQTSLYFCASSIDSGSSYNEQFFGPGTRLTVL

Target: T1, PRAME peptide on HLA-A*02:01
Assay: multimer staining

Binding result, recognises:
B1
B2
B3
B4
